Laboratory results taken from patent US20250011363A1, “OPTIMIZED SHORTENED PEPTIDE THAT BINDS TO ACETYLCHOLINE RECEPTOR, AND USE THEREOF” (SKINMED CO., LTD., priority 2021, published 2025).
Where two headings read alike, the source gives them in different places. Residues, ends and D or L forms follow the SMILES beside them. No end group written: not given here. *: point of attachment. Palmitoyl = CCCCCCCCCCCCCCCC(=O)*

Tests used:
acetylcholine receptor [1] = biological target: T1, acetylcholine receptor (Homo sapiens, UniProt P02708); assay: SPR (Biacore) affinity of shortened Espep2 peptides, Examples 1-2; type: binding; conditions: FIG. 3
T1 sequence (P02708 21-457): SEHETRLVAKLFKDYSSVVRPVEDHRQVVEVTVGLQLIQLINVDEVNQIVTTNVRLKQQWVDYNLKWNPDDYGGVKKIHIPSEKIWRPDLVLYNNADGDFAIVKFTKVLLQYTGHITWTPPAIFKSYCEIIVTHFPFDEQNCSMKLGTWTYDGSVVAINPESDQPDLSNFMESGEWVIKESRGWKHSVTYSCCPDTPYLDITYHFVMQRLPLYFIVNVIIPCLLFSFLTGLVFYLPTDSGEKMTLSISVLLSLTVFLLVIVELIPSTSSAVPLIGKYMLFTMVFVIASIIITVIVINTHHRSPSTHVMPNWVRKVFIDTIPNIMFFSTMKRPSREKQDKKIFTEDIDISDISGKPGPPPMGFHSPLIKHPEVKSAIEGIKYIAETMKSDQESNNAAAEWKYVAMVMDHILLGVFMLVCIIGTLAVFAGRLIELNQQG

[2] = tested on: dermal fibroblast cells isolated from human skin; conditions: 100 nM to 100 μM, 24 hours
Experimental: The optimized shortened peptides according to the present disclosure were assayed for cytotoxicity. In this regard, the cytotoxicity was assessed by the MTT [(3-(4,5-dimethylthiazol-2-yl)-2,5-diphenyltetrazolium bromide] method using dermal fibroblast cells isolated from human skin. The pre-cultured cells were seeded at a concentration of 1×10^5 cells/mL in a 24-well plate and cultured for 18 hours. Subsequently, the medium was removed and the diluted sample was added to the medium free of FBS and incubated for 24 hours, after which the medium was removed and MTT solution was added at a concentration of 1 μg/mL and reacted for 3 hours. Unreacted MTT was removed, and DMSO 100 μL was added to dissolve the formed formazan, and the absorbance at 540 nm was read on an ELISA reader.

[3] = biological target: T2, Acetylcholine receptor-overexpressing TE671 cells (Homo sapiens, UniProt P02708); assay: Calcium imaging (Fura-2-AM) of nicotine response, acetylcholine receptor inhibition; type: cell-based; conditions: for concentration at which acetylcholine receptors were inhibited: TE671 cells, nicotine 400 uM, calcium imaging; for inhibition at 1 µM: TE-671
T2 construct: endogenous in cells; host or cells: TE671 cells
T2 sequence (P07510 23-517): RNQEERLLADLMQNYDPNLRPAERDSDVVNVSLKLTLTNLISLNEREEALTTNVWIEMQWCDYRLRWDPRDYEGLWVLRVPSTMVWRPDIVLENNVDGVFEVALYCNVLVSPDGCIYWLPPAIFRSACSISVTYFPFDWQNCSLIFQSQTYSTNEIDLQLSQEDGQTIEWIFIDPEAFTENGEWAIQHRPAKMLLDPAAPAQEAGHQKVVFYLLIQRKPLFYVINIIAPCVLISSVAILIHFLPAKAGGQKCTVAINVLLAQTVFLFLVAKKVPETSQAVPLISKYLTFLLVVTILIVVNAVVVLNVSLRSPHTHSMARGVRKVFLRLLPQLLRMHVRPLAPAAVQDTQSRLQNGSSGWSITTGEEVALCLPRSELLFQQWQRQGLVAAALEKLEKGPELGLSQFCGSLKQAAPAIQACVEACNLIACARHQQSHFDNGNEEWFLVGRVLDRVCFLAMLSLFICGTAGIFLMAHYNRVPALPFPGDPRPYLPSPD
T2 sequence (P11230 24-501, further chain): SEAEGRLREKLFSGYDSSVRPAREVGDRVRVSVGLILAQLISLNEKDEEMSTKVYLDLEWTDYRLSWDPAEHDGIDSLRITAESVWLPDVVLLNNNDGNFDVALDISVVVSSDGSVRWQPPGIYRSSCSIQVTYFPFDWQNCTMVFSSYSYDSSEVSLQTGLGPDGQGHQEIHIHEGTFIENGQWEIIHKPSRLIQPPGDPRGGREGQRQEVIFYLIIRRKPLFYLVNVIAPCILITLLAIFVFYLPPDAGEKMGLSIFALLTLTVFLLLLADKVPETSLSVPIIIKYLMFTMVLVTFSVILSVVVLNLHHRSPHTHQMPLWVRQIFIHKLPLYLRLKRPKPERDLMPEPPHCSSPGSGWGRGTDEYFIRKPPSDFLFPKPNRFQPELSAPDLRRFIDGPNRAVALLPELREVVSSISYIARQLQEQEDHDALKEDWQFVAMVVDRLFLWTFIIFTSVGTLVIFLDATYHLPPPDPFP
T2 sequence (Q07001 22-517, further chain): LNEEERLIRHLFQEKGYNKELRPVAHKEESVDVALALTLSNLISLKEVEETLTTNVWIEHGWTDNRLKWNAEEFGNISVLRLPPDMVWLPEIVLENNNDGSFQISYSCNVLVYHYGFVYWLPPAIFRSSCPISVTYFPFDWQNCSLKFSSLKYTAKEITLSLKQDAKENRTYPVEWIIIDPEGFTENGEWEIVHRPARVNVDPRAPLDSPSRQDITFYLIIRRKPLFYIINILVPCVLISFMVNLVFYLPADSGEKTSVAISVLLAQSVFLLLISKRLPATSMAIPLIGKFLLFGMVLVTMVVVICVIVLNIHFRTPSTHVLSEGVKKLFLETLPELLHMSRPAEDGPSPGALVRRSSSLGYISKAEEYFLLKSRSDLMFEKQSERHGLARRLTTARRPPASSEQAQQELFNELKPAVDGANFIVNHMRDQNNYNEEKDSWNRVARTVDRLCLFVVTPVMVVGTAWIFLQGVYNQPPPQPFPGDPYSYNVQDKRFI
T2 sequence (P02708 21-457): as the sequence (P02708 21-457) above
Experimental: Acetylcholine receptor-overexpressing TE671 cells were cultured at 37° C. in DMEM medium supplemented with 10% FBS and 1% P/S under 5% CO2. After the TE671 cells were sufficiently grown for 4 days, the cells were detached using trypsin and the cell culture was plated in an amount of 1 ml at a density of 2×10^4 cells/well into 12-well cell culture plate with an 18 mm cover-slip lined therein, and cultured for 4 days.
The cover-slip on which the cells had grown was transferred to a fresh 12-well cell culture plate, and 997 μl of HBSS buffer and 3 μl of Fura-2-AM were added and gently mixed, followed by incubation at 37° C., 5% CO2 for 15 minutes. After incubation, the remaining Fura-2-AM was removed by washing 3-4 times with 1 ml of HBSS buffer, and an additional 1 ml was added. The cover-slip with the grown cells was placed in a chamber, and 500 μl of HBSS buffer was dispensed. The final concentration of nicotine was adjusted to 400 µM to observe the calcium imaging reaction. Then, while keeping the nicotine concentration fixed, the concentration of the sample was adjusted to find the inhibiting concentration.
The inhibitory ability of the Palmitate-6mer-1-43 and Palmitate-5mer-73 peptides on the acetylcholine receptor was examined in the same manner as in Example 6. Additionally, the inhibitory ability (IC50) of the optimized short peptides and the palmitate-modified peptides according to the present disclosure against acetylcholine receptor was compared with Synake and is depicted in FIG. 16.

acetylcholine receptor [4] = biological target: T1, acetylcholine receptor; assay: SPR binding affinity (RU) of optimized 5mer/6mer/7mer peptides, Examples 6-7
How it was run: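 Single-concentration screen: 10 μM peptide, SPR detection, binding expressed as RU.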

acetylcholine receptor [5] = biological target: T1, acetylcholine receptor; assay: SPR (Biacore) affinity of shortened Espep2 peptides, Examples 1-2; type: binding; conditions: for higher affinity compared to Synake: SPR, FIG. 1
Experimental: To construct an optimized shortened library from the previous Espep2 peptide, assessment was made of the affinity of peptides having sequences sequentially removed from the N- and C-terminals. Initially, surface plasmon resonance (SPR) experiments were conducted using a biosensor chip (Biacore3000, Biacore AB, Uppsala, Sweden). Selected acetylcholine receptor proteins were immobilized on a CM5 chip (Biacore) using EDC/NHS and observed for association and dissociation for up to 500 seconds. The observation conditions were set forth as follows: running buffer 20 mM Tris (pH 7.4), rate 30 ul/min, concentration 20 μM (peptide), and the results are depicted in FIG. 1.
To identify the crucial sequences in the shortened peptides, alanine scanning was conducted. Wild-type (WT) Espep2-6mer (RKSLLR) and Espep2-5mer (KSLLR) peptides were synthesized with each amino acid sequentially substituted with alanine (Ala, A), and their affinity was measured using the same method as in Example 1. The measurements are depicted in FIG. 2 after normalization to WT.
Moreover, among the six amino acids in the RKSLLR sequence, R residues at the N and C terminals are crucial.

[6] = SPR, Resonance Units, peptides tested at 10 μM, 6mer-2 Top sequence (Table 12)
[7] = SPR, peptides tested at 10 μM, 5mer Top sequence
[8] = 6mer-1 Top sequence, SPR, peptides tested at 10 μM
[9] = SPR, peptides at 10 μM, 6mer-2 Bottom sequence
[10] = SPR, Resonance Units, peptides tested at 10 μM, 6mer-2 Bottom sequence
[11] = SPR, Resonance Units, 5mer Bottom sequence (bottom combinations), peptides tested at 10 μM
[12] = SPR, peptides tested at 10 μM, 6mer-1 Bottom sequence (Table 11)

RKSLL [5mer-CD]
binding affinity compared to Synake (acetylcholine receptor [1]): slightly lower binding affinity compared to Synake

RRQRR [5mer-73, RRQRR]
skin permeability (after 8 hours, 37° C.): 66.87%
cytotoxicity (MTT) [2]: non-toxic

KWRQKR [6mer-2-233]
concentration at which acetylcholine receptors were inhibited [3]: 10 µM
Binding affinity (acetylcholine receptor [4]; [6]): 190 Ru
Binding affinity (RU) (acetylcholine receptor [4]; SPR, peptides at 10 μM): 190 RU

RSYSR [5mer-311]
concentration at which acetylcholine receptors were inhibited [3]: 10 µM
Binding affinity (RU) (acetylcholine receptor [4]; SPR, peptides at 10 μM): 167 RU
Binding affinity (acetylcholine receptor [4]; [7]): 167 Ru

RWRYKR [6mer-2-136]
concentration at which acetylcholine receptors were inhibited [3]: 10 µM
Binding affinity (acetylcholine receptor [4]; 6mer-2 Top sequence, SPR, peptides tested at 10 μM): 194 Ru
Binding affinity (RU) (acetylcholine receptor [4]; SPR, peptides at 10 μM): 194 RU

KGRKSLLR [Espep2-8mer, KGRKSLLR]
Kd (acetylcholine receptor [5]): 3.1 µM
higher affinity compared to Synake (acetylcholine receptor [5]): 740 times

KSLLR [5mer-ND]
binding affinity compared to Synake (acetylcholine receptor [1]): higher binding affinity than Synake
Binding affinity (RU) (acetylcholine receptor [4]; SPR, peptides at 10 μM): 23 RU

RRGVRR [6mer-1-210]
concentration at which acetylcholine receptors were inhibited [3]: 10 µM
Binding affinity (acetylcholine receptor [4]; [8]): 184 Ru
Binding affinity (RU) (acetylcholine receptor [4]; SPR, peptides at 10 μM): 184 RU

RKRIRR [6mer-1-43, RKRIRR]
cytotoxicity (MTT) [2]: non-toxic
concentration at which acetylcholine receptors were inhibited [3]: 10 µM
Kd (acetylcholine receptor [4]): 0.609 µM
Binding affinity (RU) (acetylcholine receptor [4]; SPR, peptides at 10 μM): 548 RU
Binding affinity (acetylcholine receptor [4]; SPR, peptides tested at 10 μM, 6mer-1 Top sequence (top combinations)): 548 Ru

CCCCCCCCCCCCCCCC(=O)N[C@@H](CCCNC(=N)N)C(=O)N[C@@H](CCCNC(=N)N)C(=O)N[C@@H](CCC(N)=O)C(=O)N[C@@H](CCCNC(=N)N)C(=O)N[C@@H](CCCNC(=N)N)C(=O)O [Pal-5mer-73] (Palmitoyl-RRQRR-OH; N-terminus and C-terminus assumed)
cytotoxicity (MTT) [2]: non-toxic
inhibition at 1 µM [3]: 100%

CCCCCCCCCCCCCCCC(=O)N[C@@H](CCCNC(=N)N)C(=O)N[C@@H](CCCCN)C(=O)N[C@@H](CCCNC(=N)N)C(=O)N[C@H](C(=O)N[C@@H](CCCNC(=N)N)C(=O)N[C@@H](CCCNC(=N)N)C(=O)O)[C@@H](C)CC [Pal-6mer-1-43] (Palmitoyl-RKRIRR-OH; N-terminus and C-terminus assumed)
cytotoxicity (MTT) [2]: non-toxic
inhibition at 1 µM [3]: 100%

RKSLLR [Espep2-6mer, RKSLLR]
Kd (acetylcholine receptor [5]): 57 µM
higher affinity compared to Synake (acetylcholine receptor [5]): 40 times
binding affinity compared to Synake (acetylcholine receptor [1]): higher affinity than that of Synake
RU value (acetylcholine receptor [1]; peptide 20 μM): 177 RU
Binding affinity (RU) (acetylcholine receptor [4]; SPR, peptides at 10 μM): 35 RU

WTWKGRKSLLR [Espep2-11mer, WTWKGRKSLLR, reference compound]
Kd (acetylcholine receptor [5]): 1.2 µM
higher affinity compared to Synake (acetylcholine receptor [5]): 1916 times
skin permeability (sampled up to 24 hours): did not permeate at all
concentration at which acetylcholine receptors were inhibited [3]: 5 µM

6mer-2-1115 (KYSPRK)
Binding affinity (acetylcholine receptor [4]; [9]): 39 Ru

5mer-384 (KSLRK)
Binding affinity (acetylcholine receptor [4]; [7]): 75 Ru

6mer-1-412 (RKSILK)
Binding affinity (acetylcholine receptor [4]; SPR, peptides tested at 10 μM, 6mer-1 Top sequence): 139 Ru

6mer-2-324 (KLQSRK)
Binding affinity (acetylcholine receptor [4]; [6]): 139 Ru

6mer-2-783 (RDMVRK)
Binding affinity (acetylcholine receptor [4]; [10]): 32 Ru

3633 (RRQRRY) [compound 3633]
Binding affinity, relative value to the RRQRR sequence (acetylcholine receptor [4]; SPR, XRRQRR-6mer and RRQRRX-6mer): 105

5mer-604 (RKEGK)
Binding affinity (acetylcholine receptor [4]; [11]): 13 Ru

6mer-2-455 (RWYSKR)
Binding affinity (acetylcholine receptor [4]; SPR, Resonance Units, peptides tested at 10 μM, 6mer-2 Top sequence): 135 Ru

6mer-1-259 (KRRYRK)
Binding affinity (acetylcholine receptor [4]; [8]): 141 Ru

6mer-1-366 (KRWFCR)
Binding affinity (acetylcholine receptor [4]; [8]): 133 Ru

6mer-2-799 (KCSAKK)
Binding affinity (acetylcholine receptor [4]; [10]): 13 Ru

6mer-1-971 (RKIEMK)
Binding affinity (acetylcholine receptor [4]; [12]): 32 Ru

6mer-2-328 (KRYQRK)
Binding affinity (acetylcholine receptor [4]; [6]): 131 Ru

6mer-1-265 (RKSVCR)
Binding affinity (acetylcholine receptor [4]; [8]): 145 Ru

6mer-2-1074 (RPMGRK)
Binding affinity (acetylcholine receptor [4]; [9]): 33 Ru

6mer-2-943 (KIDHRR)
Binding affinity (acetylcholine receptor [4]; [10]): 41 Ru

6mer-1-961 (RRTWAR)
Binding affinity (acetylcholine receptor [4]; [12]): 122 Ru

6mer-2-856 (KEPMRR)
Binding affinity (acetylcholine receptor [4]; [10]): 14 Ru

5mer-791 (KTKMR)
Binding affinity (acetylcholine receptor [4]; [11]): 26 Ru

6mer-1-852 (KRASVK)
Binding affinity (acetylcholine receptor [4]; [12]): 19 Ru

6mer-1-935 (RKKDIK)
Binding affinity (acetylcholine receptor [4]; [12]): 40 Ru

6mer-2-1154 (RYEARR)
Binding affinity (acetylcholine receptor [4]; [9]): 30 Ru
